The values below come from the supplement of paper PMC5998384.

The test system of data set [1] is HeLa Kyoto. Nature of the data set: melting temperature (median over replicates), in situ; higher = more thermally stable.
Data set [2] has as its system HeLa Kyoto. Nature of the data set: solubility in G1/S (NP-40 vs SDS abundance) (log2 ratio); higher = more soluble. The settings on record: cell cycle stage: G1/S.
Data set [3] has as its system HeLa Kyoto. Nature of the data set: solubility change mitosis vs G1/S (difference of NP-40 vs SDS log2 ratios) (log2 ratio difference); higher = more soluble in mitosis.
For data set [4], the system named is HeLa Kyoto. In words: thermal stability score vs G1/S (z-score of summed log2 fold changes over temperatures); higher = more thermally stable than in G1/S.
Where [5] appears, read: cell cycle stage: early G1 (4.5 h after nocodazole release).
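Throughout, for melting temperature (median over replicates), in situ: HeLa Kyoto cells synchronized by double thymidine or nocodazole block, proteins quantified by TMT10plex mass spectrometry, three independent biological replicates.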
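Throughout, for solubility change mitosis vs G1/S (difference of NP-40 vs SDS log2 ratios): synchronized HeLa Kyoto cells (double thymidine block for G1/S, nocodazole release for mitosis), protein amounts in NP-40 versus SDS lysates quantified by mass spectrometry, three biological replicates.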
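Throughout, for solubility in G1/S (NP-40 vs SDS abundance): HeLa Kyoto cells arrested at G1/S by double thymidine block, proteins quantified by TMT10plex mass spectrometry in mild NP-40 versus SDS extracts, three biological replicates.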
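Throughout, for thermal stability score vs G1/S (z-score of summed log2 fold changes over temperatures): synchronized HeLa Kyoto cells, proteins quantified by TMT10plex mass spectrometry, three biological replicates, mitosis taken 0.5 h after nocodazole release, G1/S directly after double thymidine block.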

For “MSINLTVDIYIYLLSNARSVCGKQRSKQLYFLFSPKHYWRISHISLQRGFHTNIIRCKWTKSEAHSCSKHCYSPSNHGLHIGILKLSTSAPKGLTKVNICMSRIKSTLNSVSKAVFGNQNEMISRLAQFKPSSQILRKVSDSGWLKQKNIKQAIKSLKKYSDKSAEKSPFPEEKSHIIDKEEDIGKRSLFHYTSSITTKFGDSFYFLSNHINSYFKRKEKMSQQKENEHFRDKSELEDKKVEEGKLRSPDPGILAYKPGSESVHTVDKPTSPSAIPDVLQVSTKQSIANFLSRPTEGVQALVGGYIGGLVPKLKYDSKSQSEEQEEPAKTDQAVSKDRNAEEKKRLSLQREKIIARVSIDNRTRALVQALRRTTDPKLCITRVEELTFHLLEFPEGKGVAVKERIIPYLLRLRQIKDETLQAAVREILALIGYVDPVKGRGIRILSIDGGGTRGVVALQTLRKLVELTQKPVHQLFDYICGVSTGAILAFMLGLFHMPLDECEELYRKLGSDVFSQNVIVGTVKMSWSHAFYDSQTWENILKDRMGSALMIETARNPTCPKVAAVSTIVNRGITPKAFVFRNYGHFPGINSHYLGGCQYKMWQAIRASSAAPGYFAEYALGNDLHQDGGLLLNNPSALAMHECKCLWPDVPLECIVSLGTGRYESDVRNTVTYTSLKTKLSNVINSATDTEEVHIMLDGLLPPDTYFRFNPVMCENIPLDESRNEKLDQLQLEGLKYIERNEQKMKKVAKILSQEKTTLQKINDWIKLKTDMYEGLPFFSKL [PNPLA8]”, the melting temperature in the data set with HeLa Kyoto [1] (cell cycle stage: G1/S) amounted to 53.6 °C; with HeLa Kyoto [1] (cell cycle stage: mitosis) it was 54 °C. Also, the “solubility in G1/S (log2)” value in the data set with HeLa Kyoto [2] was found to be 0.117. The “solubility change mitosis (log2)” value in the data set on HeLa Kyoto [3] is -0.0941. In addition, the thermal stability score in the data set on HeLa Kyoto [4] (setting [5]) is -0.78; in the data set with HeLa Kyoto [4] (cell cycle stage: mitosis) it was -0.701.

With “MSISSDEVNFLVYRYLQESGFSHSAFTFGIESHISQSNINGALVPPAALISIIQKGLQYVEAEVSINEDGTLFDGRPIESLSLIDAVMPDVVQTRQQAYRDKLAQQQAAAAAAAAAAASQQGSAKNGENTANGEENGAHTIANNHTDMMEVDGDVEIPPNKAVVLRGHESEVFICAWNPVSDLLASGSGDSTARIWNLSENSTSGSTQLVLRHCIREGGQDVPSNKDVTSLDWNSEGTLLATGSYDGFARIWTKDGNLASTLGQHKGPIFALKWNKKGNFILSAGVDKTTIIWDAHTGEAKQQFPFHSAPALDVDWQSNNTFASCSTDMCIHVCKLGQDRPIKTFQGHTNEVNAIKWDPTGNLLASCSDDMTLKIWSMKQDNCVHDLQAHNKEIYTIKWSPTGPGTNNPNANLMLASASFDSTVRLWDVDRGICIHTLTKHQEPVYSVAFSPDGRYLASGSFDKCVHIWNTQTGALVHSYRGTGGIFEVCWNAAGDKVGASASDGSVCVLDLRK [TBL1XR1]”, the melting temperature was determined as 52.2 °C in the data set with HeLa Kyoto [1] (cell cycle stage: G1/S) and 53.6 °C with HeLa Kyoto [1] (cell cycle stage: mitosis). In the data set on HeLa Kyoto [2], the “solubility in G1/S (log2)” value is -0.0567. Besides, in the data set on HeLa Kyoto [3], the “solubility change mitosis (log2)” value is -0.127. Also, the thermal stability score in the data set on HeLa Kyoto [4] (setting [5]) is -0.718; with HeLa Kyoto [4] (cell cycle stage: mitosis), 1.29.

With “MSKEERPGREEILECQVMWEPDSKKNTQMDRFRAAVGAACGLALESYDDLYHWSVESYSDFWAEFWKFSGIVFSRVYDEVVDTSKGIADVPEWFKGSRLNYAENLLRHKENDRVALYIAREGKEEIVKVTFEELRQEVALFAAAMRKMGVKKGDRVVGYLPNSEHAVEAMLAAASIGAIWSSTSPDFGVNGVLDRFSQIQPKLIFSVEAVVYNGKEHNHMEKLQQVVKGLPDLKKVVVIPYVSSRENIDLSKIPNSVFLDDFLATGTSEQAPQLEFEQLPFSHPLFIMFSSGTTGAPKCMVHSAGGTLIQHLKEHLLHGNMTSSDILLCYTTVGWMMWNWMVSLLATGAAMVLYDGSPLVPTPNVLWDLVDRIGITVLVTGAKWLSVLEEKAMKPVETHSLQMLHTILSTGSPLKAQSYEYVYRCIKSSILLGSISGGTDIISCFMGHNFSLPVYKGEIQARNLGMAVEAWNEEGKAVWGESGELVCTKPIPCQPTHFWNDENGNKYRKAYFSKFPGIWAHGDYCRINPKTGGIVMLGRSDGTLNPNGVRFGSSEIYNIVESFEEVEDSLCVPQYNKYREERVILFLKMASGHAFQPDLVKRIRDAIRMGLSARHVPSLILETKGIPYTLNGKKVEVAVKQIIAGKAVEQGGAFSNPETLDLYRDIPELQGF [AACS]”, the melting temperature with HeLa Kyoto [1] (cell cycle stage: G1/S) came to 48.5 °C; in the data set on HeLa Kyoto [1] (cell cycle stage: mitosis), 48 °C. Moreover, in the data set on HeLa Kyoto [2], the “solubility in G1/S (log2)” value was 0.0299. For the same sequence, the “solubility change mitosis (log2)” value with HeLa Kyoto [3] is -0.129. In addition, the results for the thermal stability score with HeLa Kyoto [4] (setting [5]) and in the data set with HeLa Kyoto [4] (cell cycle stage: mitosis) were 0.491 and 1.92, respectively.

As for “MSKLKVIPEKSLTNNSRIVGLLAQLEKINAEPSESDTARYVTSKILHLAQSQEKTRREMTAKGSTGMEILLSTLENTKDLQTTLNILSILVELVSAGGGRRVSFLVTKGGSQILLQLLMNASKESPPHEDLMVQIHSILAKIGPKDKKFGVKARINGALNITLNLVKQNLQNHRLVLPCLQLLRVYSANSVNSVSLGKNGVVELMFKIIGPFSKKNSSLIKVALDTLAALLKSKTNARRAVDRGYVQVLLTIYVDWHRHDNRHRNMLIRKGILQSLKSVTNIKLGRKAFIDANGMKILYNTSQECLAVRTLDPLVNTSSLIMRKCFPKNRLPLPTIKSSFHFQLPVIPVTGPVAQLYSLPPEVDDVVDESDDNDDIDVEAENETENEDDLDQNFKNDDIETDINKLKPQQEPGRTIEDLKMYEHLFPELVDDFQDYDLISKEPKPFVFEGKVRGPIVVPTAGEETSGNSGNLRKVVMKENISSKGDEGEKKSTFMDLAKEDIKDNDRTLQQQPGDQNRTISSVHGLNNDIVKALDRITLQNIPSQTAPGFTAEMKKDCSLPLTVLTCAKACPHMATCGNVLFEGRTVQLGKLCCTGVETEDDEDTESNSSVEQASVEVPDGPTLHDPDLYIEIVKNTKSVPEYSEVAYPDYFGHIPPPFKEPILERPYGVQRTKIAQDIERLIHQSDIIDRVVYDLDNPNYTIPEEGDILKFNSKFESGNLRKVIQIRKNEYDLILNSDINSNHYHQWFYFEVSGMRPGVAYRFNIINCEKSNSQFNYGMQPLMYSVQEALNARPWWIRMGTDICYYKNHFSRSSVAAGGQKGKSYYTITFTVNFPHKDDVCYFAYHYPYTYSTLQMHLQKLESAHNPQQIYFRKDVLCETLSGNSCPLVTITAMPESNYYEHICHFRNRPYVFLSARVHPGETNASWVMKGTLEYLMSNNPTAQSLRESYIFKIVPMLNPDGVINGNHRCSLSGEDLNRQWQSPSPDLHPTIYHAKGLLQYLAAVKRLPLVYCDYHGHSRKKNVFMYGCSIKETVWHTNDNATSCDVVEDTGYRTLPKILSHIAPAFCMSSCSFVVEKSKESTARVVVWREIGVQRSYTMESTLCGCDQGKYKGLQIGTRELEEMGAKFCVGLLRLKRLTSPLEYNLPSSLLDFENDLIESSCKVTSPTTYVLDEDEPRFLEEVDYSAESNDELDIELAENVGDYEPSAQEEVLSDSELSRTYLP [AGTPBP1]”, the melting temperature came out at 50.2 °C in the data set on HeLa Kyoto [1] (cell cycle stage: G1/S) and 50.3 °C with HeLa Kyoto [1] (cell cycle stage: mitosis). In addition, in the data set on HeLa Kyoto [2], the “solubility in G1/S (log2)” value was -0.204. The “solubility change mitosis (log2)” value in the data set on HeLa Kyoto [3] is -0.0731. In addition, the thermal stability score in the data set on HeLa Kyoto [4] (setting [5]) was -0.000956; in the data set with HeLa Kyoto [4] (cell cycle stage: mitosis) it was 0.14.

With “MSKRLRSSEVCADCSGPDPSWASVNRGTFLCDECCSVHRSLGRHISQVRHLKHTPWPPTLLQMVETLYNNGANSIWEHSLLDPASIMSGRRKANPQDKVHPNKAEFIRAKYQMLAFVHRLPCRDDDSVTAKDLSKQLHSSVRTGNLETCLRLLSLGAQANFFHPEKGNTPLHVASKAGQILQAELLAVYGADPGTQDSSGKTPVDYARQGGHHELAERLVEIQYELTDRLAFYLCGRKPDHKNGQHFIIPQMADSSLDLSELAKAAKKKLQSLSNHLFEELAMDVYDEVDRRETDAVWLATQNHSALVTETTVVPFLPVNPEYSSTRNQGRQKLARFNAHEFATLVIDILSDAKRRQQGSSLSGSKDNVELILKTINNQHSVESQDNDQPDYDSVASDEDTDLETTASKTNRQKSLDSDLSDGPVTVQEFMEVKNALVASEAKIQQLMKVNNNLSDELRIMQKKLQTLQSENSNLRKQATTNVYQVQTGSEYTDTSNHSSLKRRPSARGSRPMSMYETGSGQKPYLPMGEASRPEESRMRLQPFPAHIGRSALVTSSSSLPSFPSTLSWSRDESARRASRLEKQNSTPESDYDNTPNDMEPDGMGSSRKGRQRSMVWPGDGLVPDTAEPHVAPSPTLPSTEDVIRKTEQITKNIQELLRAAQENKHDSYIPCSERIHVAVTEMAALFPKKPKSDMVRTSLRLLTSSAYRLQSECKKTLPGDPGSPTDVQLVTQQVIQCAYDIAKAAKQLVTITTKENNN [GIT2]”, the figures for the melting temperature in the data set on HeLa Kyoto [1] (cell cycle stage: G1/S) and in the data set on HeLa Kyoto [1] (cell cycle stage: mitosis) were 48 °C and 48.9 °C, respectively. The “solubility in G1/S (log2)” value with HeLa Kyoto [2] was found to be 0.317. The “solubility change mitosis (log2)” value in the data set on HeLa Kyoto [3] was -0.13. The thermal stability score in the data set with HeLa Kyoto [4] (setting [5]) was 1.06; in the data set on HeLa Kyoto [4] (cell cycle stage: mitosis), 2.68.
